This note sets out measurements from patent US20180118848A1 (Regeneron, published 2018).

Numbering of substitutions follows the chain as printed.

As usually defined, the EC50 is the concentration at which the effect is half-maximal.

Assay [1] concerns the target T1, human MUC16 (mucin 16) (human).
T1 construct: Endogenously expressed on human tumour cell lines; also called hMUC16
In words: MSD ECL cell binding, RLU ratio OVCAR-3 vs SK-OV-3, 1.9 nM Ab. As for the experimental part:
(§1) The ability of anti-MUC16 antibodies to bind specifically to endogenously expressing MUC16 on the human ovarian carcinoma cell line (OVCAR-3) was evaluated via an electrochemiluminescence based detection assay (Meso Scale Discovery (MSD), Rockville, Md.). […] Detached cells were then washed once in 1×PBS supplemented with Ca²⁺/Mg²⁺ and counted (Cellometer Auto T4 cell counter, Nexcelom Bioscience, Lawrence, Mass.). Approximately 1.0×10⁴ cells were plated in MULTI-ARRAY 96-well carbon electrode plates (MSD) and incubated for 1 h at 37° C. […] Next, serial dilutions of anti-MUC16 or control antibodies (0.85 pM-50 nM) and no-antibody buffer controls were added to the plate-bound cells and incubated for 1 h at room temperature (RT). Plates were then washed to remove the unbound antibodies using an AquaMax2000 plate washer (MDS Analytical Technologies, Sunnyvale, Calif.). Plate-bound antibodies were detected with a SULFO-TAG™-conjugated anti-human kappa light chain antibody (Regeneron) or a SULFO-TAG™-conjugated anti-mouse IgG antibody (Jackson Immunoresearch, West Grove, Pa.) for 1 h at RT. Post-wash, plates were developed with Read Buffer (MSD) according to manufacturer's protocol and luminescent signals were recorded with a SECTOR Imager 6000 (MSD) instrument.
(§2) Luminescence intensity, measured in relative light units (RLU), for the two cell lines was recorded to indicate the binding intensity of each antibody.

Assay [2] concerns the target T1, human MUC16 (mucin 16). In words: MSD ECL cell binding, RLU ratio OVCAR-3 vs SK-OV-3, 16.7 nM Ab; NS = ratio <2.5-fold. As for the experimental part:
as §1, with “Plates were then washed to remove the unbound antibodies using an AquaMax2000 plate washer (MDS Analytical Technologies, Sunnyvale, Calif.).” left out
as §2

Assay [3] concerns the target T1, human MUC16 (mucin 16). In words: cell-based or functional assay.
Assay [4] has as its target T1, human MUC16 (mucin 16). As to the kind of experiment: FACS binding titration on PEO-1 (MUC16+) cells. The method, then: (§3) A. Briefly, flow cytometric analysis (i.e. fluorescence-activated cell sorting, or FACS) was utilized to determine binding of bispecific antibodies to Jurkat cells or cells expressing human MUC16, followed by detection with a phycoerythrin (PE)-labeled or APC-labeled anti-human IgG antibody. […] After incubation, the cells were washed twice with cold PBS containing 1% filtered FBS and a PE-conjugated or APC-conjugated anti-human secondary antibody was added to the cells and incubated for an additional 30 minutes. Wells containing no antibody or secondary only were also used as controls. After incubation, cells were washed, re-suspended in 200 μL cold PBS containing 1% filtered FBS and analyzed by flow cytometry on a BD FACS Canto II.
B. In separate experiments with analogous conditions to that described above, flow cytometric analysis (or FACS) was utilized to determine binding of select bispecific antibodies to Jurkat cells, PEO-1, OVCAR3-Luc and cynomolgus T cells. For the titration analysis, serial dilution of selected MUC16×CD3 bispecific antibodies, a first isotype control antibody (a human chimeric IgG4 antibody that binds an irrelevant human antigen with no cross-reactivity to human or cynomolgus CD3) and a second isotype control antibody (a human chimeric IgG4 antibody that binds an irrelevant human antigen with no cross-reactivity to human MUC16), ranging from 66.6 nM to 0.001 nM.
For FACS analysis, cells were gated by forward scatter height vs. forward scatter area for single events selection, followed by side and forward scatters. The EC50 for cell binding titration was determined using PRISM™ software (GraphPad Software, Inc., La Jolla, Calif.). Values were calculated using 4-parameter non-linear regression analysis. (Liu, J., et al. 2005, Biotechnol Letters 27:1821-1827).
A general note: Flow cytometry measures light scatter and fluorescence of single cells or particles in a stream.

Assay [5] has as its target T1, human MUC16 (mucin 16). In words: FACS binding titration on OVCAR3-Luc (MUC16+) cells. The method, then:
as §3
B. In separate experiments with analogous conditions to that described above, flow cytometric analysis (or FACS) was utilized to determine binding of select bispecific antibodies to Jurkat cells, PEO-1, OVCAR3-Luc and cynomolgus T cells. […]
For FACS analysis, cells were gated by forward scatter height vs. forward scatter area for single events selection, followed by side and forward scatters. The EC50 for cell binding titration was determined using PRISM™ software (GraphPad Software, Inc., La Jolla, Calif.). Values were calculated using 4-parameter non-linear regression analysis. […]

For assay [6], the target named is T1, human MUC16 (mucin 16). In words: cell-based or functional assay. This is another data set of the same source.
Assay [7] has as its target T1, human MUC16 (mucin 16). As to the kind of experiment: cell-based or functional assay. This is another data set of the same source.
For assay [8], the target named is T1, human MUC16 (mucin 16). In words: FACS binding titration on OVCAR3 (MUC16+) cells.

B1: H1H8808P (antibody, human IgG1, V domains shown)
VH: QVQLVESGGGVVQPGRSLRLSCVASGFTFSNYGIHWVRQAPGKGLEWVAVISDDGSFKFYADSVKGRFTISRDNSKNTLYLQMNSLRVEDSAVYHCAKWQHNWNDGGFDYWGQGTLVTVSS
VL: EIVLTQSPDTLSLSPGERATLSCRASQSLSSNYLAWYRQKPGQAPRLLIYGISSRATGIPDRFSGSGSGTDFTLTISRLEPEDFAVYYCQQYGSSPWTFGQGTKVEIK
notes: Human IgG1
On to B1, for which the “Ratio anti-MUC16 Binding OVCAR-3/SK-OV-3” value in assay [1] is 4 ratio; in assay [2], less than 2.5 ratio.

B2: BSMUC16/CD3-005 (bispecific antibody, V domains shown)
VH 1: QVQLVESGGGLVKPGGSLRLSCAASGFTFSNYYMSWVRQAPGKGLEWISYISGRGSTIFYADSVKGRITISRDNAKNSLFLQMNSLRAEDTAVYFCVKDRGGYSPYWGQGTLVTVSS
VH 2: EVQLVESGGGLVQPGRSLRLSCAASGFTFDDYSMHWVRQAPGKGLEWVSGISWNSGSIGYADSVKGRFTISRDNAKNSLYLQMNSLRAEDTALYYCAKYGSGYGKFYYYGMDVWGQGTTVTVSS
VL: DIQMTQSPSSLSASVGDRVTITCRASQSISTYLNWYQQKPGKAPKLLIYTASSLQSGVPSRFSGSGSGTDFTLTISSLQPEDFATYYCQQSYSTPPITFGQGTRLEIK
notes: Anti-MUC16 HCVR of H1H8767P, anti-CD3 HCVR CD3-VH-G20, common light chain of H1H8767P; also called anti-MUC16xCD3 bispecific antibody with CD3-VH-G20 arm; REGN4019
For B2, the “OVCAR3-Luc cell depletion EC50” value in assay [3] amounted to 0.0516 nM. Moreover, the EC50 is 2.63 nM in assay [4] and 1.47 nM in assay [5]. In assay [6], the “PEO-1 cell depletion EC50” value is 0.0774 nM.

B3: H1H8767P (antibody, human IgG1, V domains shown)
VH: B2 VH 1
VL: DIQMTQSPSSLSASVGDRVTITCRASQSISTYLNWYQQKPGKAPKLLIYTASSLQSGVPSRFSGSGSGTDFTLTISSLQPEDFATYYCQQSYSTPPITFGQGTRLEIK
notes: Human IgG1
Take B3: the “Ratio anti-MUC16 Binding OVCAR-3/SK-OV-3” value in assay [1] was 4 ratio; in assay [2], less than 2.5 ratio.

B4: BSMUC16/CD3-001 (bispecific antibody, V domains shown)
VH 1: B2 VH 1
VH 2: B2 VH 2 with I58K, Y108H, M111L
VL: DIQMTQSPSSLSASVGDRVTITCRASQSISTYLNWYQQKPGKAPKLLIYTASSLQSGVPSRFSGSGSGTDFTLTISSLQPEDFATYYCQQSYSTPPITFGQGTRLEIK
notes: Anti-MUC16 HCVR of H1H8767P, anti-CD3 HCVR CD3-VH-G, common light chain of H1H8767P; also called anti-MUC16xCD3 bispecific antibody with CD3-VH-G arm
Turning to B4, the “OVCAR3 cell depletion EC50” value in assay [7] was determined as 0.0224 nM. Besides, the “OVCAR3-Luc cell depletion EC50” value in assay [3] turned out to be 0.0154 nM. For the same molecule, the EC50 in assay [4] turned out to be 3.02 nM; in assay [8], 1.2 nM; in assay [5] it was 1.32 nM. Besides, in assay [6], the “PEO-1 cell depletion EC50” value amounted to 0.0256 nM.

B5: BSMUC16/CD3-002 (bispecific antibody, V domains shown)
VH 1: B2 VH 1
VH 2: B2 VH 2 with Y99D
VL: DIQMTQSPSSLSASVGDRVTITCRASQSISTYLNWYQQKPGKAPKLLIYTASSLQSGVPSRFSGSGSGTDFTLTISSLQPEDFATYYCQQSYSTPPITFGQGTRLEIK
notes: Anti-MUC16 HCVR of H1H8767P, anti-CD3 HCVR CD3-VH-G5, common light chain of H1H8767P; also called anti-MUC16xCD3 bispecific antibody with CD3-VH-G5 arm
For B5, in assay [7], the “OVCAR3 cell depletion EC50” value is 0.0306 nM. In addition, the EC50 in assay [4] is 3.13 nM; in assay [8] it was 2.69 nM. In addition, in assay [6], the “PEO-1 cell depletion EC50” value worked out at 0.0675 nM.
